Literature values as cited in publication PMC9986639.

Biological target: PAPR (Escherichia coli) (UniProt P17854)
Sequence (P17854 2-244): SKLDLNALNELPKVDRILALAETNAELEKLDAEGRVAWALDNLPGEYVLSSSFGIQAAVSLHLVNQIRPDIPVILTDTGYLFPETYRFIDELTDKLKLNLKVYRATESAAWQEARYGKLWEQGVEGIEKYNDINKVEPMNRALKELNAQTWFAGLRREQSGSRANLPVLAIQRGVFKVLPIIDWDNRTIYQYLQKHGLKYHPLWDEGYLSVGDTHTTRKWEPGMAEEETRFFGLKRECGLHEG

Chain of Trx1 (P0AA25 2-109): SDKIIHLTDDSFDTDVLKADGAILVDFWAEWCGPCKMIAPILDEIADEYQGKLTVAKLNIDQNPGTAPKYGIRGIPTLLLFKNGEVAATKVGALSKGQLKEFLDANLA

Kd: 110 µM
Substance: Trx1 (from UniProt P0AA25)
